Measured values reported in patent US20260109776A1 (Amgen, published 2026).

T1: cynoCD40(1-193) (cynomolgus monkey, UniProt P25942 21-193 (human entry))
T1 construct: also called soluble cynomolgus monkey CD40
T1 chain: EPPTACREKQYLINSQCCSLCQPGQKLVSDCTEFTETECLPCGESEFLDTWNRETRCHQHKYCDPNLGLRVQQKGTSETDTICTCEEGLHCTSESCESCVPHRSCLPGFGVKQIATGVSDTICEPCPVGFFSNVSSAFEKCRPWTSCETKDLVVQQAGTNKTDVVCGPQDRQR

T2: cynoMSLN(296-598) (cynomolgus monkey)
T2 chain: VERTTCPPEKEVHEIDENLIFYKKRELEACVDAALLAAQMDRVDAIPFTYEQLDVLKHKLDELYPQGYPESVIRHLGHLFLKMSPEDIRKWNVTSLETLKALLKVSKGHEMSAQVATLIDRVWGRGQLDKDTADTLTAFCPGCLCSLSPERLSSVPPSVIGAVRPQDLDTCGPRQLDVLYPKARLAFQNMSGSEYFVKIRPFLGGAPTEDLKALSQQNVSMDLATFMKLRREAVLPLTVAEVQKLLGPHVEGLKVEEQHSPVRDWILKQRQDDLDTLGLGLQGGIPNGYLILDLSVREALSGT

T3: cynoCD40(1-193) (cynomolgus monkey, UniProt P25942 21-193 (human entry))
T3 construct: Soluble form used in Octet; also called cynomolgus monkey CD40
T3 chain: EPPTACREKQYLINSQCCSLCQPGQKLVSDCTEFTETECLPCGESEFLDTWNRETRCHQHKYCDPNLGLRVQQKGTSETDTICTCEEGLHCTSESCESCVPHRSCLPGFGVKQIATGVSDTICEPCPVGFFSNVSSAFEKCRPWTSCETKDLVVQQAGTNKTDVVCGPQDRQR


Key:
huCD40(1-193) [1] = biological target: T4, huCD40(1-193) (human, UniProt P25942 21-193); test: Octet
T4 construct: also called soluble human CD40
Description: (§1) A panel of mesothelin×CD40 bispecific antibodies were generated in the IgG-scFv format (Table 13) and evaluated for binding to soluble forms of human and cynomolgus monkey CD40 and human and cynomolgus monkey mesothelin using the Octet assay (Table 14). Association rate (Kon), disassociation rate (Kdis), and equilibrium binding constant (KD) were calculated. […] These bispecific antibodies were next evaluated for their ability to induce mesothelin-dependent activation of human B cells. CHO cells expressing human mesothelin were seeded into a 96 well plate. The next day varying concentrations of the mesothelin×CD40 IgG-scFv antibodies were added to the wells along with purified human B cells and the plates were incubated for an additional 48 hours. Upregulation of CD86, a marker of CD40-mediated B cell activation, was quantified on B cells by flow cytometry.

cynoCD40(1-193) [2] = biological target: T1, cynoCD40(1-193); test: Octet
Description: as §1

huMSLN(296-598) [3] = biological target: T5, huMSLN(296-598) (human, UniProt Q13421 296-598); test: Octet
T5 construct: also called soluble human mesothelin
Description: as §1
T5 sequence (Q13421 other isoform, or with tags, fused parts or gaps): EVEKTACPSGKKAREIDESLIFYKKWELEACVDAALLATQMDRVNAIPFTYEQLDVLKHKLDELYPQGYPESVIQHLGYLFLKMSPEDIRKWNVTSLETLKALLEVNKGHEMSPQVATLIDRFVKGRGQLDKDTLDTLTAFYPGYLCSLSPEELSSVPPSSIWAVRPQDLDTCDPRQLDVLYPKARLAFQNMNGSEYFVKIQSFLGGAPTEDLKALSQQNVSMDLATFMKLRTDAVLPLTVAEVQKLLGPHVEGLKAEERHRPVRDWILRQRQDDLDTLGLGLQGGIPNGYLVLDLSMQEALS

cynoMSLN(296-598) = biological target: T2, cynoMSLN(296-598); test: Octet
Description: as §1

human CD40 = human CD40 (human, UniProt P25942 21-277); test: cell-based or functional assay
huCD40(1-193) [4] = biological target: T6, huCD40(1-193) (human, UniProt P25942 21-193); test: Octet, soluble antigen
T6 construct: Soluble form used in Octet; also called human CD40; soluble human CD40

cynoCD40(1-193) [5] = biological target: T3, cynoCD40(1-193); test: Octet, soluble antigen
huMSLN(296-598) [6] = biological target: huMSLN(296-598) (human, UniProt Q13421 296-598); test: Octet, soluble antigen
Target sequence in this assay (Q13421 other isoform, or with tags, fused parts or gaps): as above

[7] = biological target: human CD40 on purified human B cells (human, UniProt P25942 21-277); test: cell-based or functional assay

Kd (huCD40(1-193) [1]) [nM]	koff (huCD40(1-193) [1]) [s⁻¹]	kon (huCD40(1-193) [1]) [M⁻¹ s⁻¹]	Kd (cynoCD40(1-193) [2]) [nM]	koff (cynoCD40(1-193) [2]) [s⁻¹]	kon (cynoCD40(1-193) [2]) [M⁻¹ s⁻¹]	Kd (huMSLN(296-598) [3]) [nM]	koff (huMSLN(296-598) [3]) [s⁻¹]	kon (huMSLN(296-598) [3]) [M⁻¹ s⁻¹]	Kd (cynoMSLN(296-598)) [nM]	Kd (huCD40(1-193) [4]) [nM]	koff (huCD40(1-193) [4]) [s⁻¹]	kon (huCD40(1-193) [4]) [M⁻¹ s⁻¹]	Kd (cynoCD40(1-193) [5]) [nM]	koff (cynoCD40(1-193) [5]) [s⁻¹]	kon (cynoCD40(1-193) [5]) [M⁻¹ s⁻¹]	Kd (huMSLN(296-598) [6]) [nM]	koff (huMSLN(296-598) [6]) [s⁻¹]	kon (huMSLN(296-598) [6]) [M⁻¹ s⁻¹]	EC50 (nM), CD86 upregulation on human B cells in the presence of CHO cells expressing human mesothelin [7] [nM]	Binder	further results
0.8	0.000333	438000	1.4	0.0004	277000	1.3	0.000462	367000	17	–	–	–	–	–	–	–	–	–	–	6054-2 (bispecific antibody, IgG-scFv: IgG (CD40) 37A6, scFv (MSLN) 6F4) heavy: not shown light: SYELTQPPSVSVSPGQTASITCSGERLGNKYICWYQQKPGQSPVLVIYQDFKRPSGIPERFSGSNSGITATLTISGTQAMDEADYYCQAWDSRTVVFGGGTKLTVLGQPKAAPSVTLFPPSSEELQANKATLVCLISDFYPGAVTVAWKADSSPVKAGVETTTPSKQSNNKYAASSYLSLTPEQWKSHRSYSCQVTHEGSTVEKTVAPTECS	koff (cynoMSLN(296-598)): 0.00578 s⁻¹; kon (cynoMSLN(296-598)): 336000 M⁻¹ s⁻¹; EC50 (nM), CD86 upregulation on human B cells with huMSLN-CHO cells (human CD40): 0.00333 nM
1.2	0.000407	321000	0.9	0.000407	422000	0.1	3.87e-05	444000	4.3	–	–	–	–	–	–	–	–	–	–	6043-2 (bispecific antibody, IgG-scFv: IgG (CD40) 30A12, scFv (MSLN) 4H6) heavy: not shown light: QSALTQPASVSGSPGQSITISCTGTSSDVGNYNLVSWYQQHPGKAPKLMIFEVNQRPSGVSNRFSGSKSGTTASLTISGLQAADEADYFCCSYTTSSTYVIFGGGTKLTVLGQPKAAPSVTLFPPSSEELQANKATLVCLISDFYPGAVTVAWKADSSPVKAGVETTTPSKQSNNKYAASSYLSLTPEQWKSHRSYSCQVTHEGSTVEKTVAPTECS	koff (cynoMSLN(296-598)): 0.0012 s⁻¹; kon (cynoMSLN(296-598)): 276000 M⁻¹ s⁻¹; EC50 (nM), CD86 upregulation on human B cells with huMSLN-CHO cells (human CD40): 0.00776 nM
–	–	–	–	–	–	–	–	–	–	0.7	0.000403	584000	0.9	0.000358	420000	0.2	0.000176	878000	0.008	Anti-CD40xMSLN IgG-Fab molecule 5966-1 (bispecific antibody) chain 1: QVQLVESGGGLVKPGGSLRLSCAASGFTFSDYYMTWIRQAPGKGLEWISYISSSGSTIYYADSVKGRFTISRDNAKNSLYLQMNSLRAEDTAVYYCARDRNSHFDYWGQGTLVTVSS chain 2: DIQMTQSPSSVSASVGDRVTITCRASQGITRWLAWYQQKPGKAPKLLIYAASVLQSGVPSRFSGSGSGTDFTLTISSLQPEDFATYYCQQSNSFPRTFGQGTKVEIK chain 3: QVQLVESGGGLVKPGGSLRLSCAASEFTFSDYYMSWIRQAPGKGLEWVSYISRSGDTIYYADSVKGRFTISRDNAKNSLYLQMNGLRAEDTAVYYCARDLAAGATGGLDCWGQGTLVTVSS chain 4: SYELTQPPSVSVSPGQTASITCSGERLGNKYICWYQQKPGQSPVLVIYQDFKRPSGIPERFSGSNSGITATLTISGTQAMDEADYYCQAWDSRTVVFGGGTKLTVLG	–
–	–	–	–	–	–	–	–	–	–	0.4	0.000256	650000	0.7	0.000414	598000	0.3	0.000353	1.03e+06	0.004	Anti-CD40xMSLN IgG-Fab molecule 5968-1 (bispecific antibody) chain 1: QVQLVESGGGLVKPGGSLRLSCAASGFTFSDYYMSWIRQAPGKGLEWISYISSSESIIYYVDSVKGRFTISRDNAKNSLYLQMNSLRAEDTAVYYCARDVGSHFDYWGQGTLVTVSS chain 2: DIQMTQSPSSVSASVGDRVTITCRASQDISRWLAWYQQKPGKAPKLLISAASRLQSGVPSRFSGSGSGTDFTLTISSLQPEDFAIYYCQQAKSFPRTFGQGTKVEIKR chain 3: EVQLLESGGGLVQPGGSLRLSCAASGFTFSRNAMSWVRQAPGKGLEWVSATGGSGISTYYADSVKGRFTISRDNSKNTLYLQMNSLRAEDTAVYYCARGYSNSWWYFDYWGQGTLVTVSS chain 4: QSALTQPASVSGSPGQSITISCTGTSSDVGNYNLVSWYQQHPGKAPKLMIFEVNQRPSGVSNRFSGSKSGTTASLTISGLQAADEADYFCCSYTTSSTYVIFGGGTKLTVLGQPKAAPSVTLFPPSSEELQANKATLVCLISDFYPGAVTVAWKADSSPVKAGVETTTPSKQSNNKYAASSYLSLTPEQWKSHRSYSCQVTHEGSTVEKTVAPTECS	–
–	–	–	–	–	–	–	–	–	–	0.4	0.000467	1.08e+06	0.2	0.000423	1.86e+06	1.3	0.000242	181000	0.004	Anti-CD40xMSLN IgG-Fab molecule 5991-1 (bispecific antibody) chain 1: EVQLLESGGGLVQPGGSLRLSCAASGFTFSRNAMSWVRQAPGKGLEWVSATGGSGISTYYADSVKGRFTISRDNSKNTLYLQMNSLRAEDTAVYYCARGYSNSWWYFDYWGQGTLVTVSS chain 2: QSALTQPASVSGSPGQSITISCTGTSSDVGNYNLVSWYQQHPGKAPKLMIFEVNQRPSGVSNRFSGSKSGTTASLTISGLQAADEADYFCCSYTTSSTYVIFGGGTKLTVLGQPKAAPSVTLFPPSSEELQANKATLVCLISDFYPGAVTVAWKADSSPVKAGVETTTPSKQSNNKYAASSYLSLTPEQWKSHRSYSCQVTHEGSTVEKTVAPTECS chain 3: QVQLVESGGGLVKPGGSLRLSCAASGFTFSDYYMSWIRQAPGKGLEWISYISSSESIIYYVDSVKGRFTISRDNAKNSLYLQMNSLRAEDTAVYYCARDVGSHFDYWGQGTLVTVSS chain 4: DIQMTQSPSSVSASVGDRVTITCRASQDISRWLAWYQQKPGKAPKLLISAASRLQSGVPSRFSGSGSGTDFTLTISSLQPEDFAIYYCQQAKSFPRTFGQGTKVEIKR	–
